Data published in patent US20250076311A1 (Chugai, published 2025).

T1: cynomolgus monkey FcγRIIb extracellular domain with C-terminal His-tag (cynomolgus monkey)
T1 construct: also called cyno FcgRIIb; cynoFcγRIIb
T1 chain: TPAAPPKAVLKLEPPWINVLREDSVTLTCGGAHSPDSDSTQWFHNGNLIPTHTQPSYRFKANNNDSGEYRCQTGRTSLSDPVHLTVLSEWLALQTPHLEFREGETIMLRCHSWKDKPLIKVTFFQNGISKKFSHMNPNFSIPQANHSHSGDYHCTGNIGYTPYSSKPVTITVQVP

T2: cynomolgus monkey FcγRIIIaS extracellular domain with C-terminal His-tag (cynomolgus monkey, UniProt Q8SPW2 21-206 at identity 1.00))
T2 construct: also called cyno FcgRIIIaS; cynoFcγRIIIaS
T2 chain: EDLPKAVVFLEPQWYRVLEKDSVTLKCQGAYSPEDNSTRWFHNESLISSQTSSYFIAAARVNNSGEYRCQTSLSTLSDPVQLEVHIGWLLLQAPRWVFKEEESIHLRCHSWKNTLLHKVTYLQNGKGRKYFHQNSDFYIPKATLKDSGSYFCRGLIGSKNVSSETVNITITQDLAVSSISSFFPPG

T3: cynomolgus monkey FcγRIIa3 extracellular domain with C-terminal His-tag (cynomolgus monkey)
T3 construct: also called cyno FcgRIIa3; cynoFcγRIIa3
T3 chain: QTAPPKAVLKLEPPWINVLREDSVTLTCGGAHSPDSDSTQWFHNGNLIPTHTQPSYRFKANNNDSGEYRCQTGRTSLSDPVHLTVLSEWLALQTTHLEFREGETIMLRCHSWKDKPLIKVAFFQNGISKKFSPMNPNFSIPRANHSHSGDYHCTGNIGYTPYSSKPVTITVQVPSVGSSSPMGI

T4: cynomolgus monkey FcγRIIa1 extracellular domain with C-terminal His-tag (cynomolgus monkey)
T4 construct: also called cyno FcgRIIa1; cynoFcγRIIa1
T4 chain: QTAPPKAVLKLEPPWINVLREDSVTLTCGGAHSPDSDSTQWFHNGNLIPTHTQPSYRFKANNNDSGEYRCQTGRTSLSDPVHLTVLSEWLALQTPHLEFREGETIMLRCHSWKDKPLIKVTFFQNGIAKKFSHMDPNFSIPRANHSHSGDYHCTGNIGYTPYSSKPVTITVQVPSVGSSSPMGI

T5: cynomolgus monkey FcγRIIa2 extracellular domain with C-terminal His-tag (cynomolgus monkey)
T5 construct: also called cyno FcgRIIa2; cynoFcγRIIa2
T5 chain: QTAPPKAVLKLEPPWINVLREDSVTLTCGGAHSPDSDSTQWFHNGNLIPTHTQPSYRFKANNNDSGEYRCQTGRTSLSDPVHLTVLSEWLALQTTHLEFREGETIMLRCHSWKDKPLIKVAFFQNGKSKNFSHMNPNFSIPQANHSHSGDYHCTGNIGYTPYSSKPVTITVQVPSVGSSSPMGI

T6: human FcγRIIaR extracellular domain with C-terminal His-tag (human, UniProt P12318 34-217)
T6 construct: also called human FcgRIIaR; FcγRIIa (type R)
T6 chain: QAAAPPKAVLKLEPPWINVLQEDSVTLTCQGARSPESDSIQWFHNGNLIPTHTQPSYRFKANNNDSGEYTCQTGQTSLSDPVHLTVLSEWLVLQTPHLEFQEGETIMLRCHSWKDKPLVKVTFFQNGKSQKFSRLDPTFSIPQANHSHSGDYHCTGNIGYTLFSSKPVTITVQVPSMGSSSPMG

T7: human FcγRIIb extracellular domain with C-terminal His-tag (human, UniProt P31994 43-217)
T7 construct: also called human FcgRIIb
T7 sequence: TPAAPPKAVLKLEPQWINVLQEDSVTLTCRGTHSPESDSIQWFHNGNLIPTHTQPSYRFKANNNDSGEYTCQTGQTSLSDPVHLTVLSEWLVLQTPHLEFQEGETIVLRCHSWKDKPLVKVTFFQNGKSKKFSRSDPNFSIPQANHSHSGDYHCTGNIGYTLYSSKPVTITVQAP

T8: cynomolgus monkey FcγRIIb extracellular domain with C-terminal His-tag (cynomolgus monkey)
T8 construct: also called cyno FcgRIIb; cynoFcγRIIb
T8 chain: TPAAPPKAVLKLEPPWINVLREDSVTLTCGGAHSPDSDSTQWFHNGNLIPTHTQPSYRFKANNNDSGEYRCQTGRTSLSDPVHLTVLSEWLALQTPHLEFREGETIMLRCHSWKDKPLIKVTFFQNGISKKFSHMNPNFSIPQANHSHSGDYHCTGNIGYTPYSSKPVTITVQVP

T9: human FcγRIIaH extracellular domain with C-terminal His-tag (human, UniProt P12318 34-217)
T9 construct: also called human FcgRIIaH; FcγRIIa (type H)
T9 sequence: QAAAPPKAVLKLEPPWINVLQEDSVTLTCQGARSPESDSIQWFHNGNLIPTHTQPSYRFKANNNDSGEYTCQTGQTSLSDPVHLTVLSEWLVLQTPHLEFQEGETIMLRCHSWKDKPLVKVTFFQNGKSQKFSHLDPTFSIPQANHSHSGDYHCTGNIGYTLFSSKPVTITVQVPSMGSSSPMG

T10: cynomolgus monkey FcγRIIa2 extracellular domain with C-terminal His-tag (cynomolgus monkey)
T10 construct: also called cyno FcgRIIa2; cynoFcγRIIa2
T10 chain: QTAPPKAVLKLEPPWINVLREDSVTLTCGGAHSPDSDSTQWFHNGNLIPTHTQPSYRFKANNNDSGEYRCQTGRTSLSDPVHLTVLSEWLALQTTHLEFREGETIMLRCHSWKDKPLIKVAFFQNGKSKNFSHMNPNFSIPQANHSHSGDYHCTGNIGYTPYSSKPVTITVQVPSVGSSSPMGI


Key:
[1] = target: T1, cynomolgus monkey FcγRIIb extracellular …; assay: SPR, antibody captured, FcγR analyte
[2] = target: T2, cynomolgus monkey FcγRIIIaS …; assay: SPR, antibody captured, FcγR analyte
[3] = target: T3, cynomolgus monkey FcγRIIa3 …; assay: SPR, antibody captured, FcγR analyte
[4] = target: T4, cynomolgus monkey FcγRIIa1 …; assay: SPR, KD(SG1)/KD(variant)
[5] = target: T2, cynomolgus monkey FcγRIIIaS …; assay: SPR, KD(SG1)/KD(variant)
[6] = target: T5, cynomolgus monkey FcγRIIa2 …; assay: SPR, KD(SG1)/KD(variant)
[7] = target: T3, cynomolgus monkey FcγRIIa3 …; assay: SPR, KD(SG1)/KD(variant)
[8] = target: T6, human FcγRIIaR extracellular domain …; assay: SPR (Biacore), KD of SG1 divided by KD of variant
[9] = target: T7, human FcγRIIb extracellular domain with …; assay: SPR (Biacore), KD of SG1 divided by KD of variant
[10] = target: T8, cynomolgus monkey FcγRIIb extracellular …; assay: SPR (Biacore), KD of SG1 divided by KD of variant
[11] = target: T9, human FcγRIIaH extracellular domain …; assay: SPR (Biacore), KD of SG1 divided by KD of variant
[12] = target: T10, cynomolgus monkey FcγRIIa2 …; assay: SPR (Biacore), antibody captured, FcgR as analyte
[13] = target: T9, human FcγRIIaH extracellular domain …; assay: SPR (Biacore), antibody captured, FcgR as analyte

Row | Kd [1] [nM] | Kd [2] [nM] | Kd [3] [nM] | KD fold (SG1 = 1) [4] [fold] | KD fold (SG1 = 1) [5] [fold] | KD fold (SG1 = 1) [6] [fold] | KD fold (SG1 = 1) [7] [fold] | KD fold (SG1 = 1) [8] [fold] | KD fold (SG1 = 1) [9] [fold] | KD fold (SG1 = 1) [10] [fold] | KD fold (SG1 = 1) [11] [fold] | Kd [12] [nM] | Kd [13] [nM] | Binder
1 | 550 | 4400 | 3500 | 2.5 | 0.08 | 3.9 | 2.5 | – | – | – | – | – | – | MS1032LO06-PK56 (antibody, human IgG1, kappa, MY201 with Q311R/P343R/D413R; also called MS103205H795-PK56; M103205H795-MY56) heavy: QVTLKESGPVLVKPTETLTLTCTVSGIDLSHDDISWVRQAPGKGLEWVGIISYAGSTYYASWAKGRLTISKDTSKNQVVLTMTNMDPVDTATYYCARGVPAYSHGGDLWGQGTLVTVSSASTKGPSVFPLAPSSKSTSGGTAALGCLVKDYFPEPVTVSWNSGALTSGVHTFPAVLQSSGLYSLSSVVTVPSSSLGTQTYICNVNHKPSNTKVDKKVEPKSCDKTHTCPPCPAPELLNGPSVFLFPPKPKDTLMISRTPEVTCVVVDVSDEDPEVKFNWYVDGVEVHNAKTKPREEQYNSTYRVVSVLTVLHRDWLNGKEYKCKVSNKALPKPIEKTISKAKGQRREPQVYTLPPSREEMTKNQVSLTCLVKGFYPSDIAVEWESNGQPENNYKTTPPVLDSDGSFFLYSKLTVRKSRWQQGNVFSCSVMHEALHNHYTQKSLSLSP light: DIVMTQSPATLSLSPGERATLSCTSSQSVYHANWLSWFQQKPGQPPKLLIYWASTLAYGVPSRFSGSGSGTDFTLTISSLQPEDAATYYCAGGYGGGRYAFGQGTKVEIKRTVAAPSVFIFPPSDEQLKSGTASVVCLLNNFYPREAKVQWKVDNALQSGNSQESVTEQDSKDSTYSLSSTLTLSKADYEKHKVYACEVTHQGLSSPVTKSFNRGEC
2 | – | – | – | – | – | – | – | 5.5 | 2.9 | 2.7 | 2.9 | 1900 | 240 | M103205H795-MY387 / M103202L889-SK1 (antibody, human IgG1, kappa, name in EU numbering) heavy: QVTLKESGPVLVKPTETLTLTCTVSGIDLSHDDISWVRQAPGKGLEWVGIISYAGSTYYASWAKGRLTISKDTSKNQVVLTMTNMDPVDTATYYCARGVPAYSHGGDLWGQGTLVTVSSASTKGPSVFPLAPSSKSTSGGTAALGCLVKDYFPEPVTVSWNSGALTSGVHTFPAVLQSSGLYSLSSVVTVPSSSLGTQTYICNVNHKPSNTKVDKKVEPKSCDKTHTCPPCPAPELLTGPVVFLFPPKPKDTLMISRTPEVTCVVVDVSDEDPEVKFNWYVDGVEVHNAKTKPREEQYNSTYRVVSVLTVLHQDWLNGKEYKCKVSNKALPKPIEKTISKAKGQPREPQVYTLPPSREEMTKNQVSLTCLVKGFYPSDIAVEWESNGQPENNYKTTPPVLDSDGSFFLYSKLTVDKSRWQQGNVFSCSVMHEALHNHYTQKSLSLSP light: DIVMTQSPATLSLSPGERATLSCTSSQSVYHANWLSWFQQKPGQPPKLLIYWASTLAYGVPSRFSGSGSGTDFTLTISSLQPEDAATYYCAGGYGGGRYAFGQGTKVEIKRTVAAPSVFIFPPSDEQLKSGTASVVCLLNNFYPREAKVQWKVDNALQSGNSQESVTEQDSKDSTYSLSSTLTLSKADYEKHKVYACEVTHQGLSSPVTKSFNRGEC
